Reference: patent US20040198650A1, “Means for inhibiting proteolytical processing of parkin” (priority 2001, published 2004)
“Also recorded” adds a separate entry of the source.

Experiments:
[1] = test system: CHO and SH-SY5Y cell lines; experiment: Cytoprotection against mercaptoethanol-induced unfolded protein stress (DAPI count of dead cells); type: cell-based; conditions: 3 mM mercaptoethanol for 24h
Protocol: Mercaptoethanol is a known inducer of unfolded protein stress by inhibiting the normal formation of disulfide bonds in the endoplasmic reticulum.
CHO and SH-SY5Y cell lines were cultured expressing wild type Parkin, D126E Parkin and an empty vector with 3 mM mercaptoethanol for 24h. They were stained with DNA binding fluorescent dye DAPI and fixed in ice cold methanol prior to drying.

[2] = test system: apoptosis-associated (caspase) cleavage of human Parkin; experiment: Site directed mutagenesis of Parkin Asp residues: apoptosis-associated cleavage in stably transfected CHO and SH-SY5Y cell lines (T160 immunoblot); type: cell-based; conditions: 200 nanoM okadaic acid for 16 h
From the text: Site directed mutagenesis of […] 126 in parkin to a glutamate residue reduce the apoptosis associated cleavage of parkin. Caspases are proteinases that always cleave after an Asp residue and FIG. 3 indicated the cleavage takes place within the N-terminal 150 amino acid residues. We mutagenised the parkin expression vector to express human parkin where the Asp in the positions 86 plus 87,106, 115, 126 and 130 were substituted with and Glu. CHO and SHSY5Y cell lines were stably transfected with the expression vectors and used for testing the effect of the mutations on apoptosis-associated parkin cleavage. These cells and the cell lines expressing the normal Parkin were treated with 200 nanoM okadaic acid for 16 h and extracted for T160 immunoblotting. The CHO cell lines are represented in lanes 1-6 and the SH-SY5Y cell lines in lanes 7-12. Wild type Parkin is represented in lanes 1, 2, 7, 8; D126E in lanes 3, 4, 9, 10; D130E in lanes 5, 6, 11, 12. Lanes 1, 3, 5, 7, 9, 11 represent untreated cells and lanes 2, 4, 6, 8, 10, 12 represent okadaic treated cells. The positions of the 51 kDa and 38 kDa Parkin proteins are indicated by the upper and lower left arrows.
Caspases are proteinases that always cleave after an Asp residue. Cell lines were generated where Asp residues were changed to Glu residues to test if this amino acid position might represent the caspase cleavage sites. The Parkin expression vector used for generating the Parkin expressing K3 CHO and Park8 SH-SY5Y cell lines was changed by PCR mediated site directed mutagenesis so the nucleotide No.479 was changed from a cytosine to an adenine (ParkinD126E). The cDNA encoding Parkin was kindly provided by Dr. Mizuno, Juntendo University School of Medicine, Japan. The Parkin cDNA was PCR amplified using the primers: […]
The amplified Parkin cDNA was cloned into the Nhe I and EcoR I site of the pcDNA3.1/Zeo(−) vector and the Parkin cDNA sequence was checked by sequencing. To prepare the D126E mutant, the inventors performed site-directed mutagenesis using the Quickchange Mutagenesis Kit (Stratagene) according to the manufactures instructions. Complementary strands of the oligonucleotide: 5′-[…]-3′ were used for preparing the D126E mutated construct. Parkin vectors containing Parkin mutated for D130E and DD86, 87EE were constructed by analogous techniques. This vector was then transfected into SH-SYSY or CHO cells using FUGENE6 (Boehringer Mannheim) and stably transfected cell lines were selected using 25 microgram Zeocinl ml medium (SH-SY5Y cells) or 300 microgram Zeocin/ml medium (CHO cells). The sequences of the vectors were verified by DNA sequencing. The expression vectors were used to generate the stably transfected DD86, 87EE, D126E and D130E CHO and SH-SY5Y cell lines expressing Parkin protein with the indicated substitutions of amino acids. These cells and the cell lines expressing the normal Parkin were treated with 200 nanoM okadaic acid for 16 h and extracted for T160 immunoblotting. The CHO cell lines are represented in lanes FIG. 5, 1-6 and the SH-SY5Y cell lines in lanes 7-12. Wild type Parkin is represented in lanes 1, 2, 7, 8; D126E in lanes 3, 4, 9, 10; D130E in lanes 5, 6, 11, 12. Lanes 1, 3, 5, 7, 9, 11 represent untreated cells and lanes 2, 4, 6, 8, 10, 12 represent okadaic treated cells. The positions of the 51 kDa and 38 kDa Parkin proteins are indicated by the upper and lower left arrows.

B1: D126E: human Parkin with Asp 126 substituted by Glu (SEQ ID NO: 4) (protein, listed as Homo sapiens)
chain: MIVFVRFNSSHGFPVEVDSDTSIFQLKEVVAKRQGVPADQLRVIFAGKELRNDWTVQNCDLDQQSIVHIVQRPWRKGQEMNATGGDDPRNAAGGCEREPQSLTRVDLSSSVLPGDSVGLAVILHTESRKDSPPAGSPAGRSIYNSFYVYCKGPCQRVQPGKLRVQCSTCRQATLTLTQGPSCWDDVLIPNRMSGECQSPHCPGTSAEFFFKCGAHPTSDKETSVALHLIATNSRNITCITCTDVRSPVLVFQCNSRHVICLDCFHLYCVTRLNDRQFVHDPQLGYSLPCVAGCPNSLIKELHHFRILGEEQYNRYQQYGAEECVLQMGGVLCPRPGCGAGLLPEPDQRKVTCEGGNGLGCGFAFCRECKEAYHEGECSAVFEASGTTTQAYRVDERAAEQARWEAASKETIKKTTKPCPRCHVPVEKNGGCMHMKCPQPQCRLEWCWNCGCEWNRVCMGDHWFDV
modifications: mat_peptide (1)..() Parkin with a D126E mutation
- Survival of cells expressing the Parkin variant compared to wild type Parkin [1]: enhanced survival
- Apoptosis-associated cleavage of mutated Parkin compared to wild type [2]: abrogated the cleavage; also recorded: drastically reduced parkin cleavage
